# Experimental data published in a protein production outcome set (Wang et al. 2014).
# Assay: label from the status in PepcDB records
row,Sequence,protein production
1,MTKLEQIQQWTAQHHASMTYLSNPKTIEYLTGFGSDPIERVLALVVFPDQDPFIFAPALEVEVIKETGWQFPVIGYLDHENPWAMIADQVKQRHVNPEHVAIEKGQLQVARMEALAAQFSAPSFDLDITSFIEHMR,not failed
2,MTKLINFLAEYQREIESQPIELDLALFSRLVGLPFEAVLTQPSAPLVEACMKLIEFVDNENYLILPADRQMLEQIAFSNRYQSVQICDVVQGPHRFLAATFVLSKTTKVIAFRGPNGTLLSWKADLHFSFSSINKLKIQAHQYLLQALQHDNQNIYCVGFSQGASIAALACMDISDTHRHRIQTIIFDSPGLPDDHYQSPIPIIELVPPLSLFALVGEHPFHQITISSSSTGIWQHDLYSWEADSHGEFAKNIGITNPTTIQHQFIQLLPSNITDENIDRTLNVAISIFSQLNFHSTSELIKHWNQFNALIQTEITAENIVVKTAILRLQKLIFKNAALNLQSIPLN,failed
3,MTKMNRETVITEALDLLDEVGLDGVSTRRLAKRLGVEQPSLYWYFRTKRDLLTAMAQAAMAPHAAEPLPEPGEDWHGWFLRNTRSFRRTLLARRDGARLHAGSRPTADLDRVRRKMDFLVASGVPERHAQMAMLAAGRFTVGCVLEEQAETGAGDTADLPADVPEIDHESAFEAGLALITDGLVRHVDAR,not failed
4,MTKNNILNNKITKVILFRICFIIAITTALVCGLKLNIINDGFWHIKVGEYIIKNRVIPREDIFSWYGIENKLKWISHEWLFGVIAYLVYKIKGFTSVIIFSTIVNCSTALLVYKFALIRNKNKVVSLIIMWVYIFGDFYDITYRPVLISKLILLCSFILLEKKKYLFALIVLILGVNIHGGIYPLYLMIFAYYTIPFSYKYLIFSLITVLINPYGYNLYKYTYLSMKNIDINRYINEWCITPIYDYKVALIIICITVCICTVSKIKFKDFLFCGALIILAISAKRHVDVIYLFVLPVISLYFNSFYFDFFMKFVSRIKPEKLKSIIPKLNYITCGFLIVVMIVKSSLCIKQYFFDTHFHNFEYITNDSENPIKACNFINSHQEIKNSRTFNDYNSSPYIIFRGIKTFVDSRQDLFTYNFNKTNAFVDQIKALNNYDYMIYVFKKYNIKYAILRNDMPNTRLLRNTDLIYIIYEDRDYSIFQINRNKLKSSNQRGV,failed
5,MTKPILKKKERVDQLFSTDVKIIQNKEVFSYSIDSVLLSRFPKIPSRGLIVDLCSGNGAVGLFAATRTKAKIIEVELQERLADMAQRSIQLNDLTNQVSMIRDDLKNLLDHVPRSKVDLILCNPPYFKAAETSKKNLSEHYLLARHEIATNLEEICKISQQVLKTNGRLAMVHRPDRFLEIIDTFKKYKLAPKRLQFVYPKLGKDANMLLIETIKDGSPNGMKILPPLIVHKDNGDYTDNIHEIYFGKGHQAYMYVLKCADDSLYTGYTTDIKKRLATHNAGKGAKYTRARLPVELIYVEQFNHKNAAMSAEGKLKQKTRAQKLHYIEEHQHINLVSQF,failed
6,MTKQPDLLKVDWSAIPAPDDDGAAAHLPGARIQPVALPATDGSSVTLSSLPGRTVLFIYPRTGVPGQISLVDDWDMIPGARGCTPQTCSFRDLFTDLKTAGADAVFGLSTQSSAYQSEMATRLHLPFPVLSDESLELTRALNMPTMQVAGMTLLKRMALIIDDGRISHVFYPVFPPDRNAGDVLEWLKANPR,failed
7,MTKQQKGFVTGQPTGALNLSDILDSEELGEYHLMSAAIITGNTVDFSGLGAGPDDPFEIASITKIFTGELLRLQIERGEITESTAVGDVLGERVADSLIRDITVEELANHTSGLPRLGNVGLRPFMATFFDKNPYKDLSADRVISISTTSKLNSRGEFHYSNLGFALLGQVLARNAGLTFDQLLDRDLLAPLNLNNTKLMTPESLAQDAPQGFSTPGKQVEAWEMDGFLPAAGLRSTARDMAVFCQYLFTKGPAPFTWQSLESAPEIVWHNGESFGYSSVLFFNTATTTAIFVAADVATSVFPIGHELLMANSTRQESKLEHHHHHH,failed
8,MTKRFKLKISRILSFKSCRLKDPSSLPFNPVSSSLRRTSPLVNSSADVTTVPQRRRSSFRLHVLTVFGCGRSSTPLDVDLRNSPVLSPPQTPTFQWESEGKWHVIAQVTEEEYETPRRKIYNGGSEKDNRRRLKKKEKSNSRRRGSISSAEEETDRESLLPSSTNLSPEYSSSELPRVTRRPRQLLKKAVIEEESESSSPPPSPARLSSFVQRLMPCTMAAAVMVEGVAVVKKSEDPYEDFKGSMMEMIVEKKMFEVAELEQLLSCFLSLNAKRHHRAIVRAFSEIWVALFSGGSGGGRRSSSFSSVRLSDYDEC,failed
9,MTKTAKVNDIVRDWVVLDAKDKVFGRLITEIAVLLRGKHRPFYTPNVDCGDFVVVINANKVKFSGMKLEDKEYFTHSGYFGSTKSKTLQEMLEKAPEKLYHLAVRGMLPKTKLGKAMIKKLKVYRDDKHPHTAQTSKKDAK,failed
10,MTKVIAITGKGGTGKTAVAALLIRSLSKKGQFILAVDADADTNLPETLGCENVKTIGDAKEFLQAEITKPRPDNPDMNKESVLQSKVYEIIEEMPGYDLLVMGRPEGSGCYCYVNNLLRGIMDKLVKNYDLVVIDAEAGLEHFSRKIIRDIDDLIVVTDASRRGFRTAERIHELVNELESNIGSIHVIANKVTDANREKLVKLAEELKLNLIGMIPLDPKIEEMDIKGIPLFEIPDDSVAAVEIENIVKKLGF,failed
11,MTKYLKYFIISMFRSRGLIFFGLFLILLSLIPNMLSISDSAHYSLKVLNHASRWYGLAILISFSIVSGTLAQMIYFSSSAIIYLHRHSKLSINRYYFESTLGAMVIFGIYALIILFATIVGYSYVSKNIIFPKKLLMLVLFTMLAGLFYFSLSFSLQAIATLLKKAHLIEYLAYFLISLTFLLGYLQVNTSLDVSLLVFLSPLNSILSLLIYGYSGILSFSVEFLLVTSLFYITVLQLISVWSLKRLKEVRIEDKLI,failed
12,MTLATATNEHLANISNTLIYSAMAVYTLAFFAYIAEWLFGSRSKVGRTAAALTHKTAAKAPAVTVKSAGGTAVLDRPQVVTRSAPGARDVPDGPGAHGGDEQGDLYGRIAVSLTVLAFAVEAAGVVARALSVQRAPWGNMYEFNITFSTVAVGVYLALLALKKNIRWLGLPLVTTVLLDLGLAVTVLYTASDQLVPALHSYWLYIHVSTAILCGAVFYVGAVGALLYLFKDSYENKLATGGQPGRFATSVMERLPASASLDKFSYRVNAAVFPLWTFTIIAGAIWAGDAWGRYWGWDPKETWAFITWVAYACYLHARATAGWKGRKAAYIALIAFACWLFNYYGVNIFVSGKHSYAGV,failed
13,MTLIPTDLSASRLSDAVRDPNREIAASSRVIDLSVGIVVCIPCFRRPQHLRLTLESLASQRTPRSFAVVMVENDAARRESAPVAAEYLADGRLQGICLVEQRQGNCQAINAAFETAQALFPAATRFLMIDDDEIASPDWLELMVRTAEATGADVVGGPVLPDFDDDSQPWLSRHPAFRPAYDYSGAVPLIYGCGNCLITRAAFDRLGSPAFDLRFNFLGGGDCDFFVRCRDAGMTFHWTTEAVITETVPQSRTSLGWIAKRGLRIGAINYRVQHKAAQGAAARVRVFAQMLGRLPLSLLRAARLLATSKAVVAMHPVMVALGSLLAALGIEPKPYEASKIVS,failed
14,MTLMCSIAGIYLAKLPYANIIGALVLALLLGILMQLAPEKMRKEASSGMSFISNKFLRLGIILLGFRLDLEKLAAAGVKTILVAALAVAGTITLTYWLSRKFGAEDELAFLSACGCGVCGAAAVMGVSPQITAASEERKRENEVLAVAVVCVMGTVFTLLEIGLKPVLGLTDSQFGIVAGGSLHEIAHAVASGGAFGNISLDSALIMKLSRVILLAPVALIIGYLYQRRTAKVSTIDSTTKTGKLPIPWFLGGFILTSVLGTYLPFSTSLLDALVQVAYIFLGMAMAALGISVNFKVIFKRGGAVFGAAAISSTCLLIFMIIMSKLFF,failed
15,MTLRAARPEFLDLFPAGAEARRLADGFTWTEGPVYVPARSAVIFSDVRQNRTWAWSDDGQLSPEMHPSHHQNGHCLNKQGHLIACSHGLRRLERQREPGGEWESIADSFEGKKLNSPNDVCLAPDGSLWFSDPTYGIDKPEEGYGGEMELPGRWVFRLAPDGTLSAPIRDRVKPNGLAFLPSGNLLVSDTGDNATHRYCLNARGETEYQGVHFTVEPGKTDGLRVDAGGLIWASAGDGVHVLTPDGDELGRVLTPQTTSNLCFGGPEGRTLYMTVSTEFWSIETNVRG,failed
16,MTLTIPNAPGSSGYLDMFPERRMSYFGNSYILGLTVTAGIGGLLFGYDTGVISGALLYIKDDFEVVKQSSFLQVYNVSSFTSSKLETIVSMALVGAMIGAAAGGWINDYYGRKKATLFADVVFAAGAIVMAAAPDPYVLISGRLLVGLGVGVASVTAPVYIAEASPSEVRGGLVSTNVLMITGGQFLSYLVNSAFTQVPGTWRWMLGVSGVPAVIQFILMLFMPESPRWLFMKNRKAEAIQVLARTYDISRLEDEIDHLSAAEEEEKQRKRTVGYLDVFRSKELRLAFLAGAGLQAFQQFTGINTVMYYSPTIVQMAGFHSNQLALFLSLIVAAMNAAGTVVGIYFIDHCGRKKLALSSLFGVIISLLILSVSFFKQSETSSDGGLYGWLAVLGLALYIVFFAPGMGPVPWTVNSEIYPQQYRGICGGMSATVNWISNLIVAQTFLTIAEAAGTGMTFLILAGIAVLAVIFVIVFVPETQGLTFSEVEQIWKERAYGNISGWGSSSDSNNMEGLLEQGSQS,not failed
17,MTLTMGFIGFGKSANRYHLPYLKTRNNIKVKTIFVRQINEELAAPYEERGVYFTTDLDELLNDKEIQVVTICTPAHTHYELAKKVILAGKSVIVEKPFCDTVEHAKELLALGREKGVVVMPYQNRRFDGDFLAVKQVVEQGFLGDIIEIESHIDYFRPGSITHEAPKEEGSFYSLGIHTMDRMISLFGRPNTVTYDIRNNEVEGAVDNYFDVGLHYGNQLKIKLKTNHIVAKDYPRFIVHGTNGSFIKYGEDQQENDLKAGIMPESAGFGEDSPMYYGIAKYRNANGDWIEKQIKTPLGDYGRFYDAAYDTIVNGAPKLVKDEEAVTNIEILENGFAAPSPSVYKLEALHLNELEHHHHHH,not failed
18,MTLVRMTEKLLSPLHTRPWPERWLTRVLGAALASAAYLLCLPWDLNNRAPSPGAVEETTPVTGVGVVALAVILLALAAYFGHRDSLGWPVLLVAVPPAALLYVSLRTHPGPPDGFAGVWPLVWGFFTLLIGVGVLVAAAVAREFRADLVDEELSLAHRR,failed
19,MTLVSVVLPVYQGAPWIRGALDCLAAQTHRPLEILVVDDASSDGTPAVVEDWRARHPDLSVRLIVRPENGGPGVARNDALALARGAYVAFLDADDRCVPWRLARQLARLEAEPGLGSVGAWYDMVDADGTPVAARRLSVTAGEMAWAALIHPPFLLSTLMTRRALCRPGIFAPRHQGEDAPAQRRLLWQAPAAMIEEVLVTYRTDPHRPQDPRMGVAMAEDLAPLTGPLSAAEAWALHDALLAFPNRVTPAAIAAVSGLFTLLGVFRGLRPAWMTRPEYNRLFEGYLDLAAPFLAAHGESLLAPPSPQAPRVAPWMGPWEAEWRAGEARSDRPRPKEIFPPVGGDSPSKLSG,failed
20,MTLVVPFDGSELAEAALVRAAEFGTVFEEDVLAVSVIRNGNAKYAREHDWIGPNEDFDLEAVVTSLHEQVIDLCPSSDFRHTVVDRYAPAGAVAKAIRKLAKREDASMVFIGSENAGHLVTSISSVGGSIASDDAYDVVIVRHRNPSKIAKLRNTSPHRQSKSDFYLPE,failed
21,MTLYTNDYLEFYLTLVGWLINNGIWDMISDTGLFALPFLIIVVREWIKVRQEGADEGNKGVLSLARIETQLYIGYVVVSLCAIPVMSVGFDTLQFDQTRAKQCQVLLPAPGDTGWNTTFSSLTGKSARIPIWWAVMHSLSKGLNSGAVAAIPCGTDLRQMRMDVDAIRIDNPLLAQEVADFTHDCFGPSRARLFMRQPDLGAITKDPKTLQDLNWIGSRFLLNTSGYYDTDYSKTPRTAWPYDAKRDDGLPQVTGGGGYPTCKQWWSDGSIGLRDRLQAQVDPTLMNKLLGWAKWLSKDEVTDSMIRQVVSPSSQVNGDVYSDYGGQIGGTMWNGLARAGGTLGVGVGSLAYFPGMDIVRQALPMVMAFLKMAMVICLPLVLIIGAYQLKVAMTMSVVFFALIFVDFWFQLARWVDSTIIDVLYGSGSPHLSFDPVMGLNTTTQDAILNFVMGAMFIILPLFWMSALAWAGVQVSGVLEGLSRGTQSVERAGASGGGIAQQAVGSIGGKS,failed
